Results taken from US20230399393A1, “METHODS TO EXTEND HEALTH-SPAN AND TREAT AGE-RELATED DISEASES” (National University of Singapore, priority 2020, published 2023).

What was measured:
[1] = system: Primary human hepatic stellate cells; experiment: IL-11 stimulation in the presence of DMSO or U0126, western blot; type: cell-based; conditions: IL-11 24 hours; U0126 10 μM
Description: FIG. 21. Western blot image showing the levels of p-ERK, ERK, p-P90RSK, P90RSK, p-LKB1, LKB1, p-AMPK, AMPK, p-mTOR, mTOR, p-p70S6K, p70S6K, p-S6RP, S6RP, SMA, and GAPDH in primary human hepatic stellate cells that are unstimulated (BL+DMSO) or stimulated for 24 hours with IL11 in the presence DMSO or U0126 (10 μM).
(§1) Primary human hepatic stellate cells and human hepatocytes were stimulated for 24 hours with IL-11 in the presence DMSO or U0126. As discussed in Example 4.4, the inventors observed that IL-11 treatment stimulates p-mTOR, p-70S6K and p-S6RP. In line with the inventors' hypothesis, administration of U0126 to IL-11-stimulated cells prevents ERK-mediated inactivation of LKB1/AMPK that stops IL11-induced mTORC1/P70S6K activation (FIG. 21 and FIG. 22, respectively).

[2] = system: Primary human cardiac fibroblasts; experiment: IL-11-stimulated fibroblasts with Rapamycin, Wortmannin or U0126, western blot; type: cell-based; conditions: IL11 10 ng/ml 24 hours; Rapamycin 10 nM, Wortmannin 1 μM, U0126 10 μM
Description: FIG. 18. Western blot image showing the levels of p-LKB1, LKB1, p-AMPK, AMPK in primary human cardiac fibroblasts that are unstimulated (BL+DMSO) or stimulated with IL11 for 24 hours in the presence of either DMSO, Rapamycin, Wortmannin, or U0126. IL11(10 ng/ml), Rapamycin (10 nM), Wortmannin (1 μM), U0126 (10 μM).
Primary human cardiac fibroblasts were stimulated with IL-11 for 24 hours in the presence of either DMSO, Rapamycin (mTOR inhibitor), Wortmannin (phosphoinositide 3-kinases (PI3K) inhibitor), or U0126 (MEK1/2 inhibitor) and the levels of p-LKB1 and p-AMPK were measured by western blot (FIG. 18).

human hepatocytes [3] = experiment: IL-11 stimulation in the presence of DMSO or U0126, western blot; type: cell-based; conditions: IL-11 24 hours; U0126 10 μM
Description: FIG. 22. Western blot image showing the levels of p-ERK, ERK, p-P90RSK, P90RSK, p-LKB1, LKB1, p-AMPK, AMPK, p-mTOR, mTOR, p-p70S6K, p70S6K, p-S6RP, S6RP in primary human hepatocytes that are unstimulated (BL+DMSO) or stimulated for 24 hours with IL11 in the presence DMSO or U0126 (10 μM).
as §1

[4] = system: rheumatoid synovial cells; conditions: upon treatment; cited from earlier work
human hepatocytes [5] = experiment: Increasing concentrations of IL-11 or IL-6, western blot p-LKB1/p-AMPK; type: cell-based; conditions: 24 hours; 1.25-20 ng/ml, even at the highest concentration
Description: (§2) FIG. 23. Western blot image showing the levels of p-LKB1, LKB1, p-AMPK, AMPK in primary human hepatocytes or primary human hepatic stellate cells that are unstimulated (BL) or stimulated for 24 hours with increasing concentrations (1.25, 2.5, 5, 10 or 20 ng/ml) of IL-11 or IL-6.
(§3) Primary human hepatic stellate cells (HSCs) and human hepatocytes were stimulated for 24 hours with increasing concentrations (1.25-20 ng/ml) of IL-11 or IL-6. […] The effect of IL-11 on these markers is observable at concentrations as low as 1.25 ng/ml in both HSCs and hepatocytes.

[6] = system: Primary human hepatic stellate cells (HSCs); experiment: as above; type: cell-based; conditions: 24 hours; 1.25-20 ng/ml, even at the highest concentration
Description: as §2, §3

[7] = system: Primary human hepatocytes; experiment: Hepatocytes stimulated with IL-11, BSA or palmitate with X203, X209 or IgG, western blot; type: cell-based; conditions: 24 hours; antibody 2 μg/ml; IL11 10 ng/ml or palmitate 0.5 mM
Description: FIG. 20. Western blot image showing the levels of p-ERK, ERK, p-P90RSK, P90RSK, p-LKB1, LKB1, p-AMPK, AMPK, p-Acetyl-CoA Carboxylase (p-ACC), Acetyl-CoA Carboxylase (ACC), p-mTOR, mTOR, p-p70S6K, p70S6K, p-S6RP, S6RP in primary human hepatocytes that are unstimulated (BL) or stimulated for 24 hours with either IL11, 0.5% BSA, or palmitate (saturated fatty acid) in the presence of X203, X209, or IgG (11E10) isotype control. IL11 (10 ng/ml), IgG/X203/X209 (2 μg/ml), palmitate (0.5 mM) conjugated in free BSA (0.5% BSA solution) in the ratio of 6:1.
Primary human hepatocytes (stimulated with IL-11, BSA or palmitate, or unstimulated) were treated with X203 (anti-IL-11 antagonist antibody) and X209 (anti-IL-11Rα antagonist antibody). […] Treatment with X203 or X209 essentially reverses the effect of palmitate stimulation on these markers to the levels observed in the unstimulated control.

AML12 [8] = experiment: Senescence reversal experiment, qPCR at day 10; type: cell-based, mouse; conditions: 2 μg/ml for 72 hours after 7 days senescence induction; vs IgG
Description: FIG. 25. (25A) Schematic of senescence reversal experiment for data shown in B-D. Senescent AML12 were generated for 7 days as described above. IgG/X203/X209 (2 μg/ml) was added into the cultures at the end of senescence induction period for 72 hours; cells were harvested at day 10 for RNA extraction and subsequent qPCR experiments. Relative mRNA expression of (25B) Cdkn1a (p21), (25C) Il1β, and (25D) Il11.
Briefly, senescent AML12 were generated for 7 days as described above, but IgG/X203/X209 (2 μg/ml) was added into the cultures at the end of senescence induction period for 72 hours.
(§4) Senescent AML12 were generated by treating the cells with a sub-lethal concentration of H2O2 (0.75 mM) for 1 hour, followed by 23 hours recovery per day, for 7 days as described (Tripathi, Yen, and Singh 2020, STAR Protocols 1 (2): 100064). For prevention study, AML12 cells were treated with 2 ug/ml of either IgG or X209 during the recovery period of the senescence induction stage (from day 1 to day 7); cells were harvested for total RNA collection at day 10. For reversal study, senescence was first induced for seven days followed by 2 ug/ml of IgG, X203, or X209 treatment for 3 days; cells were harvested for total RNA collection at day 10.
(§5) Total RNA was extracted from AML12 or snap-frozen tissues using Trizol (Invitrogen) and RNeasy Mini Kit (Qiagen). […] using iScript cDNA Synthesis Kit (Biorad). Gene expression analysis was performed on duplicate samples with either TaqMan (Applied Biosystems) for Il11 (Mm00434162) or fast SYBR green (Qiagen) technology using StepOnePlus™ (Applied Biosystem) for Ccl2, Ccl5, Gapdh, Il1β, Il6, Il8, p16, p21, Tnfα, over 40 cycles. Expression data were normalized to GAPDH mRNA expression and fold change was calculated using 2^−ΔΔct method.

AML12 cells = experiment: In vitro model of senescence induction, qRT-PCR at day 7; type: cell-based, mouse; conditions: 2 ug/ml from day 2, H2O2 0.75 mM, vs isotype-matched control IgG
Description: Senescent hepatic mouse cells were generated from cells of the mouse hepatocyte cell line AML12 as described in Tripathi et al., Star Protocols (2020) 1:100064 (hereby incorporated by reference in its entirety).
Briefly, AML12 cells were grown to 50% confluency and senescence was induced by treating the cells with a sub-lethal concentration of H2O2 (0.75 mM) for 1 h, followed by 23 h recovery per day, for a total of 7 days (as described in Tripathi et al., Star Protocols (2020) 1:100064). From day 2 onwards, 2 ug/ml of X209/X203 or isotype-matched control IgG was added to the cultures during the 23h recovery period.
Total RNA was isolated at day 7, and levels of p21 (Cdkn1a), […], Il11 and Tgfb gene expression were evaluated by qRT-PCR. Briefly, total RNA was extracted from cell lysates using Trizol (Invitrogen) followed by RNeasy column (Qiagen) purification. cDNAs were synthesized with iScript™ cDNA synthesis kit (Bio-Rad) according to manufacturer's instructions. Gene expression analysis was performed with either TaqMan (Applied Biosystems) or fast SYBR green (Qiagen) using the StepOnePlus Real-Time PCT System (Applied Biosystems) over 40 cycles. Expression data for p21 (Cdkn1a), Il1b, Il11 and Tgfb were normalised to Gapdh expression, and fold change was calculated using the 2^−ΔΔCt method.

[9] = system: Primary human cardiac fibroblasts; experiment: IL11 or TGFβ1 stimulated fibroblasts with X203, X209 or IgG, western blot; type: cell-based; conditions: IL11/TGFβ1 10 ng/ml, 24 hours; antibody 2 μg/ml
Description: FIG. 19. Western blot image showing the levels of p-ERK, ERK, p-P90RSK, P90RSK, p-LKB1, LKB1, p-AMPK, AMPK, p-mTOR, mTOR, p-p70S6K, p70S6K, p-S6RP, S6RP, SMA, and GAPDH in primary human cardiac fibroblasts that are unstimulated (BL) or stimulated for 24 hours with either IL11 or TGFβ1 in the presence of X203, X209, or IgG (11E10) isotype control. IL11/TGFβ1 (10 ng/ml), IgG/X203/X209 (2 μg/ml).
Primary human cardiac fibroblasts were stimulated with IL11 or TGFβ1, or unstimulated (BL).

AML12 [10] = experiment: Senescence prevention experiment, qPCR at day 10; type: cell-based, mouse; conditions: 2 μg/ml during recovery period, vs IgG
Description: FIG. 24. (24A) Schematic of senescence prevention experiment for data shown in B-F. Senescent AML12 were generated by treating the cells with a sub-lethal concentration of H2O2 (0.75 mM) for 1 hour, followed by 23 hours recovery per day, for 7 days as described by Tripathi et. al. (2020). IgG/X209 (2 μg/ml) was added into the cultures during the 23 hours recovery period for 10 days; cells were harvested at day 10 for RNA extraction and subsequent qPCR experiments. Relative mRNA expression of (24B) Cdkn2a (p16), (24C) Cdkn1a (p21), (24D) Il1β, (24E) Il8, and (24F) Il11.
Briefly, senescent AML12 were generated by treating the cells with a sub-lethal concentration of H2O2 as described by Tripathi et. al. (2020) STAR Protocols 1 (2): 100064. IgG/X209 (2 μg/ml) was added into the cultures during the 23 hours recovery period for 10 days. Relative mRNA expression of Cdkn2a (p16), Cdkn1a (p21), Il1β, Il8, and Il11, as measured by qPCR is shown in FIGS. 24B, 24C, 24D, 24E and 24F, respectively. Markers of senescence (P16 and p21) and markers of inflammation (IL-1b, IL-11 and […]) are diminished in cells that have undergone IL-11-mediated signalling antagonism by X209.
as §4, §5

## N#CC(=C(/N)Sc1ccccc1N)/C(C#N)=C(\N)Sc1ccccc1N [U0126]
[1]
  ERK-mediated inactivation of LKB1/AMPK: prevents
  IL11-induced mTORC1/P70S6K activation: stops
[2]
  level of p-AMPK: increases
  level of p-LKB1: decreases
Human hepatocytes [3]
  ERK-mediated inactivation of LKB1/AMPK: prevents
  IL11-induced mTORC1/P70S6K activation: stops

## COc1ccc2c(c1)c(CC(=O)O)c(C)n2C(=O)c1ccc(Cl)cc1 [indomethacin, reference compound]
[4]
  expression of IL-11: reduction

## IL-6: cytokine used as comparator stimulus to IL-11
Human hepatocytes [5]
  inactivation of LKB1 or activation of AMPK: does not induce
[6]
  inactivation of LKB1 or activation of AMPK: does not induce

## interferon-gamma: interferon-gamma (IFNγ)
[4]
  expression of IL-11: reduction

B1: X209: mouse anti-mouse IL-11Rα IgG antagonist antibody; VH SEQ ID NO:24, VL SEQ ID NO:25 (antibody, V domains shown)
VH: QVQLQQPGAELVRPGSSVKLSCKASGYTFTNYWMHWLKQRPVQGLEWIGNIGPSDSKTHYNQKFKDKATLTVDKSSSTAYMQLNSLTSEDSAVYYCARGDYVLFTYWGQGTLVTVSA
VL: DIVLTQSPATLSLSPGERATLSCRASQSISNNLHWYQQKSHEAPRLLIKYASQSISGIPARFSGSGSGTDFTLSFSSLETEDFAVYFCQQSYSWPLTFGQGTKLEIK
[7]
  levels of p-AMPK and p-ACC: increase
  levels of phosphorylated markers p-ERK, p-p90RSK, p-LKB1, p-mTOR, p-p70S6K and p-S6RP: reduces
AML12 [8]
  inflammation marker IL-1 b: significantly reduce
  inflammation marker IL-11: significantly reduce
  senescence marker p21: significantly reduce
AML12 cells
  gene expression of Il11: significantly reduce
  gene expression of Il11b: significantly reduce
  gene expression of Tgfb: significantly reduce
  gene expression of p21 (Cdkn1a): significantly reduce
[9]
  level of phosphorylation of markers ERK, p90RSK, LKB1, mTOR, p70S6K and S6RP: significantly reduce
AML12 [10]
  marker of inflammation IL-1b mRNA: diminished
  marker of inflammation IL-6: diminished
  marker of inflammation IL-11 mRNA: diminished
  marker of senescence P16 (Cdkn2a) mRNA: diminished
  marker of senescence p21 (Cdkn1a) mRNA: diminished
